The target in data set [1] is T1, Androgen receptor (AR), full-length (Homo sapiens, UniProt P10275 P10275:1-920). As to the kind of experiment: EMSA; 10 nM R1881, 30 mM KCl, 2 mM MgCl2, pH 7.5, poly(dI-dC). Conditions: tags: none stated; cDNA from pSVAR0 in pBluescript II SK+, T7/wheat germ extract (Promega); chain copies: 2; label: 32P 5' end. An excerpt:
(§1) Double-stranded oligonucleotides constituting either the wild-type ARE or a mutated version thereof at −186, relative to the TARP transcription initiation site, were 5′end labeled with […] using T4 polynucleotide kinase (Amersham Bioscience, Piscataway, N.J.). The wild-type oligonucleotide sequence was […] and includes the ARE[−186] sequence of the TARP promoter. The corresponding oligonucleotide sequence with the mutated version of the ARE[−186] was […]. Full-length human AR cDNA was subcloned from PSVAR0 (Brinkmann et al., J. Steroid Biochem., 34: 307-310, 1989) to pBluescript II SK+ (Stratagene). In vitro-translated human AR was produced by transcription-coupled translation by using T7 RNA polymerase and wheat germ extract (Promega). Translated AR was incubated with either wild-type ARE[−186] probe or mutated ARE[−186] probe in a buffer containing 20 mM HEPES (pH 7.5), 30 mM KCl, 2 mM MgCl₂, 1 mM EDTA, 1 mM dithioerythritol, 1 mM phenylmethylsulfonyl fluoride, 10 nM R1881, 15% glycerol, 1 μg poly(dI-dC)poly(dI-dC) and 1 μg BSA. Samples were resolved by electrophoresis on 5% TBE/polyacrylamide gels. The gels were dried and subjected to autoradiography.
(Mobility shift assays separate free from complexed probe on a gel.)

Data set [2] deals with T1, Androgen receptor (AR), full-length. As to the kind of experiment: EMSA; 10 nM R1881, 30 mM KCl, 2 mM MgCl2, pH 7.5, poly(dI-dC); abolished by 100-fold unlabeled wild-type competitor. The settings on record: tags: none stated; cDNA from pSVAR0 in pBluescript II SK+, T7/wheat germ extract (Promega); chain copies: 2; label: 32P 5' end.
Text: as §1

T1 sequence (P10275 whole entry, one chain of several): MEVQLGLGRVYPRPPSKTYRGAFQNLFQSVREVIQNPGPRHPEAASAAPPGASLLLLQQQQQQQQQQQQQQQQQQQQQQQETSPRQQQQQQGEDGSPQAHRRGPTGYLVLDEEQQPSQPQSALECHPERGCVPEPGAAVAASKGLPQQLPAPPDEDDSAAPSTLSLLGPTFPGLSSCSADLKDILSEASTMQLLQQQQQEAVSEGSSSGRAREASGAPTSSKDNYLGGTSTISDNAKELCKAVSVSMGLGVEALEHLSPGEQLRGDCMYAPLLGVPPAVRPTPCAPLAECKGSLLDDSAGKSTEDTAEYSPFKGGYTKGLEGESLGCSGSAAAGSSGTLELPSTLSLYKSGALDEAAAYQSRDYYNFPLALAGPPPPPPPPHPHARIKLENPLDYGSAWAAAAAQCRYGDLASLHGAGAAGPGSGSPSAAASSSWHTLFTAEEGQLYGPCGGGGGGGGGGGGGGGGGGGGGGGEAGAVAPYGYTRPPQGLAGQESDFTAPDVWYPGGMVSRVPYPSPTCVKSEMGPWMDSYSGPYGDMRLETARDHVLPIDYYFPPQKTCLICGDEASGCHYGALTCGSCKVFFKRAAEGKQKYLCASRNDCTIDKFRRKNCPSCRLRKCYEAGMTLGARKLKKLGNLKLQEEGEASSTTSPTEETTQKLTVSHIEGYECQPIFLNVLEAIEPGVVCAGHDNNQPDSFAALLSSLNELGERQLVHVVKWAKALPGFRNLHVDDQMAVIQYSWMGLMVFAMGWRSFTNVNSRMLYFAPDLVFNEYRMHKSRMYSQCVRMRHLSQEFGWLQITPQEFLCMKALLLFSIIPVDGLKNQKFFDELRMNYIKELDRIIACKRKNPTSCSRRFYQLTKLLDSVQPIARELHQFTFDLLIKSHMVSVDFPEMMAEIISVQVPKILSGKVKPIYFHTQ

B1: mutated ARE[-186] oligo (dsDNA)
DNA 1: GCAAGGTGTGGTCAACTATTAAA
DNA 2: TTTAATAGTTGACCACACCTTGC
For the molecule B1, the binding result in data set [1] is listed as “no binding”.

B2: wild-type ARE[-186] TARP promoter oligo (dsDNA)
DNA 1: GCAAGGTGAGGTCAGTTCTTAAA
DNA 2: TTTAAGAACTGACCTCACCTTGC
In the case of B2, the binding result in data set [2] was “binds”.

The values are drawn from patent publication US20070032439, “Tarp promoter and uses thereof” (published 2007).
